Patent publication US20200157519A1 (IMMUNWORK, published 2020)

Key:
[1] = molecular target: T1, mouse fibrin (mouse fibrinogen coated on the plate and treated with thrombin) (mouse, UniProt E9PV24 37-557; Q8K0E8 35-481; Q8VCM7 26-436); test: ELISA at 200 nM on mouse fibrin plate, HRP-protein L
T1 construct: Made on the plate from mouse fibrinogen (Sigma) with thrombin
T1 sequence (looked up) 1: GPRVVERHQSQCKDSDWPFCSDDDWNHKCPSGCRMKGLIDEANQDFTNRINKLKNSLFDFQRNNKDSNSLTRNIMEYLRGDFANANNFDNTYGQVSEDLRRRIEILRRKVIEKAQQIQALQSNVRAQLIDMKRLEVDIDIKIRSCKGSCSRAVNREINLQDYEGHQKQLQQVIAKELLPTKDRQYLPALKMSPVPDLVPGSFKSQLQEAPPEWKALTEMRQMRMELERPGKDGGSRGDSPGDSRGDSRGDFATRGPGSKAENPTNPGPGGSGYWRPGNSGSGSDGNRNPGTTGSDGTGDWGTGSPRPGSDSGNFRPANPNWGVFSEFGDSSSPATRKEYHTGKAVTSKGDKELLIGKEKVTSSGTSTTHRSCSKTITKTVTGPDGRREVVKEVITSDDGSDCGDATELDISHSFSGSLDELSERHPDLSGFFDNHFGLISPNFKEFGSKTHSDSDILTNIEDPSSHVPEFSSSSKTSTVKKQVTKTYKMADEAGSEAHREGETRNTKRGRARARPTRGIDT
T1 sequence (looked up) 2: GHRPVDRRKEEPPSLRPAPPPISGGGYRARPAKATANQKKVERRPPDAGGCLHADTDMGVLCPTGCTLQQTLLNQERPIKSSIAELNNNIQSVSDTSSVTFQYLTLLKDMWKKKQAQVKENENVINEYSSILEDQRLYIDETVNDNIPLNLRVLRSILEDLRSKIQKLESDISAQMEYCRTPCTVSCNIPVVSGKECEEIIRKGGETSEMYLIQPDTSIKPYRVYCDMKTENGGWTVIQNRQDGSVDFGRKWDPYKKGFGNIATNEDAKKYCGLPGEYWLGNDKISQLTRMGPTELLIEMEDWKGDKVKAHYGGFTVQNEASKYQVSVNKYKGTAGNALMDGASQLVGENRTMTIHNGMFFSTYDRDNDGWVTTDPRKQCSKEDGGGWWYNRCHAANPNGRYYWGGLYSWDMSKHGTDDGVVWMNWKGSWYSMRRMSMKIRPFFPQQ
T1 sequence (looked up) 3: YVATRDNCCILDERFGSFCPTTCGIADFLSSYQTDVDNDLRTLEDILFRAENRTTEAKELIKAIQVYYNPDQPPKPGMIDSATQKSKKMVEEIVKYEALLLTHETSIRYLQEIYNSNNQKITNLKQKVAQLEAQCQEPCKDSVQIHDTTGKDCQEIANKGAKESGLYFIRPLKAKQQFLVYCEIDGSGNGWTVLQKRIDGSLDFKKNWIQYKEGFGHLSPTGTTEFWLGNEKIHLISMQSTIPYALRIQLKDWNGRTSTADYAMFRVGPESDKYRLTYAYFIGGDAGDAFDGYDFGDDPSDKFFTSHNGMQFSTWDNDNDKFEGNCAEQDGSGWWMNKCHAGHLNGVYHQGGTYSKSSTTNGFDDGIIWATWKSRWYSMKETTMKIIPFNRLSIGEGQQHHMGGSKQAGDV
Procedure: The procedures for ELISA analysis were similar to the procedures described in the previous Examples. Briefly, fibrinogen from mouse (Sigma) diluted with PBS was added to a 96-well polystyrene microplate at 100 μL/well, and then the plate was sealed and allowed to stand at 4° C., overnight.
Each fibrin plate was prepared as follows. 100 μL of TBS containing a final concentration of 1.0 U/mL thrombin (Sigma), 2 mM CaCl₂ and 7 mM L-cysteine (Merck) was added to the wells of the fibrinogen plate, which was then washed with TBS and blocked with the buffer (5% non-fat dry milk/PBS). Thereafter, 100 μL of reteplase-(3D5-scFv) at various final concentrations (600 nM, 200 nM, 66 nM, 22 nM, 7.4 nM, 2.5 nM, and 0.8 nM) were added to each well and incubate at room temperature for 1 hour. The plate was than washed for three times, and HRP-conjugated protein L diluted to 1/5000 was added to the wells and incubated for 1 hour at room temperature. The wells were washed three times and added with 100 μL of TMB substrate buffer. 5 minutes later, the color development was stopped with 1 M HCl. The optical density (OD) was measured at 450 nm using a microplate reader.

mouse fibrinogen = molecular target: T2, mouse fibrinogen (mouse, UniProt E9PV24 20-557; Q8K0E8 20-481; Q8VCM7 26-436, limits assumed); test: ELISA on coated plate, HRP-protein L detection
T2 construct: Bought protein; also called fibrinogen from mouse (Sigma)
T2 sequence (looked up) 1: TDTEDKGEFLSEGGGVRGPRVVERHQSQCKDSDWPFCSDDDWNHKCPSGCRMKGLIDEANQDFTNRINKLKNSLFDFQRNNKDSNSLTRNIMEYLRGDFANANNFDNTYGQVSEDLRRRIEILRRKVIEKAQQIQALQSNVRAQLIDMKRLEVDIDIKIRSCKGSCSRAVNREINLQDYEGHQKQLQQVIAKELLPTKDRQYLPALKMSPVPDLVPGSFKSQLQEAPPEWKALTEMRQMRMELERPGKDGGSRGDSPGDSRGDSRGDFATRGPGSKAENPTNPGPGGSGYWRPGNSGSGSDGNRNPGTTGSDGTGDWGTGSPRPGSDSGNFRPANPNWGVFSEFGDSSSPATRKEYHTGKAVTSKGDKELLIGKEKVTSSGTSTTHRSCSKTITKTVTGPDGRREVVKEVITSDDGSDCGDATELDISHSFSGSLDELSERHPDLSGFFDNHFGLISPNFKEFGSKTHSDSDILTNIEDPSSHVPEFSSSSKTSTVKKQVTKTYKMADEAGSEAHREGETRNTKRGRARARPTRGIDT
T2 sequence (looked up) 2: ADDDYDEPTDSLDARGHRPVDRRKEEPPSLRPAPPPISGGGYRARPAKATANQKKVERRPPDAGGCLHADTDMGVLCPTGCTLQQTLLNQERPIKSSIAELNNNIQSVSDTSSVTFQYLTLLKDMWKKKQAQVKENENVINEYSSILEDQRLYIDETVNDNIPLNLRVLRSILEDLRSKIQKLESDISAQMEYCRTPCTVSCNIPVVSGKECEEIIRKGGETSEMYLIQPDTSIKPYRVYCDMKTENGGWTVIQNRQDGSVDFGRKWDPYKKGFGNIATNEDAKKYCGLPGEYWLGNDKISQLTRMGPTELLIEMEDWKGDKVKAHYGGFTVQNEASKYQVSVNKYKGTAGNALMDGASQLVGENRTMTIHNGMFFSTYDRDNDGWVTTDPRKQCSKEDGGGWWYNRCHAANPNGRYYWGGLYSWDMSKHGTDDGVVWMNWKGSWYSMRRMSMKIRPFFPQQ
T2 sequence (looked up) 3: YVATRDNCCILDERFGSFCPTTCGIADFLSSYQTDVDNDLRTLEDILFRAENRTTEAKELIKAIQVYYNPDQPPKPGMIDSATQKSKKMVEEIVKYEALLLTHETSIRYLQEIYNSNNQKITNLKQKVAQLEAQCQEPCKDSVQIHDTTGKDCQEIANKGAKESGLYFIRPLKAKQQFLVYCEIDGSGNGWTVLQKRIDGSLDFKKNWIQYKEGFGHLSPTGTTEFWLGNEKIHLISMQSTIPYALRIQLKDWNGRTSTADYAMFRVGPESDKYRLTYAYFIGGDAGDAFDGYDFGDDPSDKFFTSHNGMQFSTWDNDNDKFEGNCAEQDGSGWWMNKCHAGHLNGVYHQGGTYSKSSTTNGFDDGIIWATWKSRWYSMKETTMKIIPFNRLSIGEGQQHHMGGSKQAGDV

- binding result [1]: binds
- binding result (mouse fibrinogen): no binding (tested: 200 nM)
B1: recombinant reteplase-(3D5 VL-218-VH scFv α fibrin) protein (other)
chain: SYQGNSDCYFGNGSAYRGTHSLTESGASCLPWNSMILIGKVYTAQNPSAQALGLGKHNYCRNPDGDAKPWCHVLKNRRLTWEYCDVPSCSTCGLRQYSQPQFRIKGGLFADIASHPWQAAIFAKHRRSPGERFLCGGILISSCWILSAAHCFQERFPPHHLTVILGRTYRVVPGEEEQKFEVEKYIVHKEFDDDTYDNDIALLQLKSDSSRCAQESSVVRTVCLPPADLQLPDWTECELSGYGKHEALSPFYSERLKEAHVRLYPSSRCTSQHLLNRTVTDNMLCAGDTRSGGPQANLHDACQGDSGGPLVCLNDGRMTLVGIISWGLGCGQKDVPGVYTKVTNYLDWIRDNMRPASGGGGSGGGGSGGGGSDIQMTQSPSSLSASVGDRVTITCRASQDVSNNVAWYQQKPGKAPKLLIFWSPWLYSGVPSRFSGSGSGTDFTLTISSLQPEDFATYYCQQGWDSPVTFGQGTKVEIKRGSTSGSGKPGSGEGSTKGEVQLVESGGGLVQPGGSLRLSCAASGFTISDFGIHWVRQAPGKGLEWVASIWPSGGYTYYADSVKGRFTISADTSKNTAYLQMNSLRAEDTAVYYCARSWFYSWYDYWGQGTLVTVSS
notes: Fusion: reteplase, flexible linker, 3D5 VL, 218 linker, 3D5 VH; also called reteplase-(3D5 scFv); reteplase-(3D5-scFv)
